Data on 36 sequences can be found in the Immune Epitope Database (IEDB).

The target in one experiment is HLA-A*02:03. Kind of experiment: IEDB peptide-MHC binding, purified MHC/competitive/radioactivity; ≥ and ≤ were set here for values at or beyond the usual limits of such assays.
Another experiment concerns the target HLA-A*02:01. Kind of experiment: IEDB peptide-MHC binding, cellular MHC/competitive/fluorescence; ≥ and ≤ were set here for values at or beyond the usual limits of such assays.
Another experiment has as its target HLA-A*02:02. The description is as above.
The target of the next experiment is HLA-A*02:06. The experiment is described as above.
The target of the next experiment is HLA-A*68:02. The description is as above.
The mark [1] stands for this setting: source organism: Vaccinia virus WR.
The mark [2] stands for this setting: source organism: Influenza A virus.

Where only a bound is given, the exact number is not on record here.

Consider EIVSHLRAST, for which the IC50 with HLA-A*02:03 (setting [1]) is 2810 nM; in the experiment with HLA-A*02:01 (setting [1]), at least 70 µM; with HLA-A*02:02 (setting [1]), 5.15 µM; with HLA-A*02:06 (setting [1]) it was 12.6 µM; with HLA-A*68:02 (setting [1]), 6.33 µM.
As to ELENKKVEYV, the IC50 is 3650 nM with HLA-A*02:03 (setting [1]); 35.5 µM in the experiment with HLA-A*02:01 (setting [1]); 21.4 µM with HLA-A*02:02 (setting [1]); at least 70 µM with HLA-A*02:06 (setting [1]); at least 70 µM with HLA-A*68:02 (setting [1]).
In the case of ELTSNCTRTT, the IC50 in the experiment with HLA-A*02:03 (setting [1]) was 1470 nM; with HLA-A*02:01 (setting [1]) it was 15.2 µM; in the experiment with HLA-A*02:02 (setting [1]), 14.6 µM; with HLA-A*02:06 (setting [1]), 5.72 µM; with HLA-A*68:02 (setting [1]) it was 5.04 µM.
The matching figures for EQYTCNKPYT: 3010 nM, at least 70 µM, 14 µM, 45.7 µM and 20.4 µM.
For the sequence FIVYGRSNA, the IC50 with HLA-A*02:03 (setting [1]) is 370 nM; with HLA-A*02:01 (setting [1]) it was 16.9 µM; in the experiment with HLA-A*02:02 (setting [1]), 6.09 µM; with HLA-A*02:06 (setting [1]), 8.75 µM; with HLA-A*68:02 (setting [1]), 5.26 µM.
As to FLKVPAQNA, the IC50 with HLA-A*02:03 (setting [2]) is 838 nM; with HLA-A*02:01 (setting [2]), 11.3 µM; with HLA-A*02:02 (setting [2]), 6.66 µM; in the experiment with HLA-A*02:06 (setting [2]), at least 70 µM; in the experiment with HLA-A*68:02 (setting [2]) it was 29 µM.
As to FVKKMLPKII, the IC50 with HLA-A*02:03 (setting [1]) is 1140 nM; with HLA-A*02:01 (setting [1]), 32.7 µM; in the experiment with HLA-A*02:02 (setting [1]), 11.1 µM; with HLA-A*02:06 (setting [1]), 6.71 µM; with HLA-A*68:02 (setting [1]), 14.1 µM.
As for GIIITVGML, the IC50 turned out to be 349 nM with HLA-A*02:03 (setting [1]); 6.56 µM with HLA-A*02:01 (setting [1]); 8.67 µM with HLA-A*02:02 (setting [1]); 18.4 µM with HLA-A*02:06 (setting [1]); 19.6 µM with HLA-A*68:02 (setting [1]).
The matching figures for GILIYDDNI: 1700 nM, 11.3 µM, 11.7 µM, 13.3 µM and 33.5 µM.
The matching figures for GIRCVSNLDI: 3870 nM, at least 70 µM, 20.1 µM, 33 µM and at least 70 µM.
The matching figures for HQRRLVKLL: 1680 nM, 26.6 µM, 15.9 µM, 21.3 µM and at least 70 µM.
Turning to IAMLKSKNI, the IC50 in the experiment with HLA-A*02:03 (setting [1]) was 846 nM; with HLA-A*02:01 (setting [1]), 46.7 µM; in the experiment with HLA-A*02:02 (setting [1]), 37.7 µM; in the experiment with HLA-A*02:06 (setting [1]), 10.6 µM; with HLA-A*68:02 (setting [1]) it was 5.87 µM.
For the sequence IIELPYVGDT, the IC50 was 4420 nM with HLA-A*02:03 (setting [1]); 46.8 µM with HLA-A*02:01 (setting [1]); 13.7 µM with HLA-A*02:02 (setting [1]); 17 µM with HLA-A*02:06 (setting [1]); at least 70 µM in the experiment with HLA-A*68:02 (setting [1]).
The matching figures for IIYSKAGNI: 13 nM, 50.7 µM, 9.76 µM, 13.7 µM and 5.39 µM.
In the case of ILSEKRKDTI, the half-maximal inhibitory concentration (IC50) was 541 nM in the experiment with HLA-A*02:03 (setting [1]); at least 70 µM with HLA-A*02:01 (setting [1]); 44 µM with HLA-A*02:02 (setting [1]); at least 70 µM with HLA-A*02:06 (setting [1]); at least 70 µM with HLA-A*68:02 (setting [1]).
For the sequence ITNILGGVL, the IC50 with HLA-A*02:03 (setting [1]) was 2440 nM; with HLA-A*02:01 (setting [1]), at least 70 µM; with HLA-A*02:02 (setting [1]), 7.38 µM; with HLA-A*02:06 (setting [1]), 32.5 µM; in the experiment with HLA-A*68:02 (setting [1]) it was 9.24 µM.
For KTKISVEKI, the IC50 with HLA-A*02:03 (setting [1]) was 112 nM; with HLA-A*02:01 (setting [1]) it was 26.9 µM; with HLA-A*02:02 (setting [1]), 7.6 µM; in the experiment with HLA-A*02:06 (setting [1]), 10.7 µM; with HLA-A*68:02 (setting [1]), at least 70 µM.
Turning to LAKSVFNSL, the concentration for half-maximal inhibition (IC50) is 3100 nM in the experiment with HLA-A*02:03 (setting [2]); 30.9 µM in the experiment with HLA-A*02:01 (setting [2]); 14 µM in the experiment with HLA-A*02:02 (setting [2]); 17.1 µM with HLA-A*02:06 (setting [2]); at least 70 µM with HLA-A*68:02 (setting [2]).
As to LANERYRSA, the IC50 with HLA-A*02:03 (setting [1]) is 554 nM; with HLA-A*02:01 (setting [1]) it was 49.1 µM; with HLA-A*02:02 (setting [1]), 31.3 µM; in the experiment with HLA-A*02:06 (setting [1]), at least 70 µM; with HLA-A*68:02 (setting [1]) it was at least 70 µM.
As for LISSDGARVI, the 50% inhibitory concentration (IC50) with HLA-A*02:03 (setting [1]) is 1150 nM; with HLA-A*02:01 (setting [1]) it was 12.7 µM; in the experiment with HLA-A*02:02 (setting [1]), 7.18 µM; with HLA-A*02:06 (setting [1]), 34.9 µM; with HLA-A*68:02 (setting [1]), 17.9 µM.
As for LMLHNPTSET, the IC50 is 4480 nM with HLA-A*02:03 (setting [1]); 8.92 µM with HLA-A*02:01 (setting [1]); 39.3 µM with HLA-A*02:02 (setting [1]); 11.1 µM in the experiment with HLA-A*02:06 (setting [1]); at least 70 µM in the experiment with HLA-A*68:02 (setting [1]).
The matching figures for LMSDNPKAST: 938 nM, 8.98 µM, 8.88 µM, 47.4 µM and at least 70 µM.
Consider MISTYPGNT, for which the half-maximal inhibitory concentration (IC50) with HLA-A*02:03 (setting [1]) was determined as 229 nM; with HLA-A*02:01 (setting [1]), 22.1 µM; with HLA-A*02:02 (setting [1]) it was 5.49 µM; in the experiment with HLA-A*02:06 (setting [1]) it was 25.7 µM; with HLA-A*68:02 (setting [1]), 14.7 µM.
Take NALLKHRFEII: the 50% inhibitory concentration (IC50) with HLA-A*02:03 (setting [2]) is 4100 nM; with HLA-A*02:01 (setting [2]), 22.7 µM; in the experiment with HLA-A*02:02 (setting [2]), 11.2 µM; with HLA-A*02:06 (setting [2]), 5.36 µM; in the experiment with HLA-A*68:02 (setting [2]), 12.4 µM.
With NLERETGLSA, the IC50 with HLA-A*02:03 (setting [1]) stood at 1660 nM; in the experiment with HLA-A*02:01 (setting [1]), 17.5 µM; with HLA-A*02:02 (setting [1]), 17.6 µM; in the experiment with HLA-A*02:06 (setting [1]), 15 µM; with HLA-A*68:02 (setting [1]) it was 31.3 µM.
On to NTSQRGIL, for which the IC50 with HLA-A*02:03 (setting [2]) was 2790 nM; with HLA-A*02:01 (setting [2]), 6.68 µM; with HLA-A*02:02 (setting [2]), 5.1 µM; with HLA-A*02:06 (setting [2]) it was at least 70 µM; with HLA-A*68:02 (setting [2]) it was at least 70 µM.
For the sequence QMYRKFSRCT, the IC50 in the experiment with HLA-A*02:03 (setting [1]) is 2260 nM; with HLA-A*02:01 (setting [1]), 27.1 µM; in the experiment with HLA-A*02:02 (setting [1]), 25.7 µM; with HLA-A*02:06 (setting [1]), 14.7 µM; with HLA-A*68:02 (setting [1]), 48.2 µM.
Turning to QVKDNIISRT, the IC50 with HLA-A*02:03 (setting [1]) is 421 nM; in the experiment with HLA-A*02:01 (setting [1]), 40.9 µM; with HLA-A*02:02 (setting [1]), 17.8 µM; in the experiment with HLA-A*02:06 (setting [1]), 34.3 µM; with HLA-A*68:02 (setting [1]) it was 24.2 µM.
For RAMAWTVV, the IC50 with HLA-A*02:03 (setting [2]) was 2420 nM; with HLA-A*02:01 (setting [2]), 7.6 µM; with HLA-A*02:02 (setting [2]) it was 8.18 µM; with HLA-A*02:06 (setting [2]), 7.78 µM; in the experiment with HLA-A*68:02 (setting [2]), at least 70 µM.
Turning to RASAGQISV, the IC50 amounted to 4960 nM with HLA-A*02:03 (setting [2]); 19.6 µM in the experiment with HLA-A*02:01 (setting [2]); 38.8 µM with HLA-A*02:02 (setting [2]); 11.5 µM with HLA-A*02:06 (setting [2]); 8.55 µM in the experiment with HLA-A*68:02 (setting [2]).
Turning to RLLKNMKQCT, the IC50 was 3140 nM in the experiment with HLA-A*02:03 (setting [1]); 9.76 µM in the experiment with HLA-A*02:01 (setting [1]); 46.8 µM with HLA-A*02:02 (setting [1]); 11.9 µM with HLA-A*02:06 (setting [1]); at least 70 µM with HLA-A*68:02 (setting [1]).
Take RTRLYDYFT: the IC50 with HLA-A*02:03 (setting [1]) worked out at 3050 nM; with HLA-A*02:01 (setting [1]), 49.5 µM; with HLA-A*02:02 (setting [1]), 7.1 µM; with HLA-A*02:06 (setting [1]), 48.7 µM; with HLA-A*68:02 (setting [1]) it was 27.2 µM.
Regarding SLETVKMGA, the IC50 was 547 nM with HLA-A*02:03 (setting [1]); 26.1 µM in the experiment with HLA-A*02:01 (setting [1]); 11.2 µM with HLA-A*02:02 (setting [1]); 23.4 µM with HLA-A*02:06 (setting [1]); at least 70 µM with HLA-A*68:02 (setting [1]).
Consider SMTSDSKSI, for which the IC50 was determined as 2300 nM in the experiment with HLA-A*02:03 (setting [1]); 34.8 µM in the experiment with HLA-A*02:01 (setting [1]); 8.35 µM with HLA-A*02:02 (setting [1]); 56.1 µM with HLA-A*02:06 (setting [1]); 8.09 µM with HLA-A*68:02 (setting [1]).
The matching figures for SMYTRLRQDT: 1140 nM, 32.9 µM, 6.56 µM, 42 µM and at least 70 µM.
With SVKYYGRST, the IC50 with HLA-A*02:03 (setting [1]) amounted to 1160 nM; in the experiment with HLA-A*02:01 (setting [1]) it was 25.9 µM; with HLA-A*02:02 (setting [1]), 6.79 µM; in the experiment with HLA-A*02:06 (setting [1]), 19.5 µM; in the experiment with HLA-A*68:02 (setting [1]) it was 30.7 µM.

Broadly, the IC50 is the concentration at which inhibition is half-maximal.
